± gives the standard deviation of the averaged measurements.
Tested on: ATP
Assay: switch fluorescence ratio, 500 uM ATP over buffer (Cy3 cluster intensity, sum of 5 cycles each) (fold (ratio)); higher = stronger signal-on switching upon ATP binding; sequences stand for … in TCGTCGGCAGCGTCAGATGTGTATAAGAGACAGTTTTTTTTTTTTTTTTTTTTTTTTT…TC
Settings: aptamer strand: ATP DNA aptamer (quencher-CACCTGGGGGAGTATTGCGGAGGAAGG + anchor), 100 nM annealed; ATP concentration: 500 uM
Procedure, shortened: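 Switching-strand clusters labelled with Cy3 on a modified Illumina MiSeq flow-cell were annealed to 100 nM quencher-labelled ATP aptamer, imaged in selection buffer, and re-imaged after 15 min with 500 uM ATP at 22 °C. This was done over five cycles with NaOH stripping and re-annealing in between. The fluorescence ratio is summed target-cycle over summed buffer-cycle Cy3 intensity per cluster, averaged per switch-domain sequence, excluding clusters outside 100-1000 RFU.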
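Note: ATP exposure 15 min at 22 °C before imaging.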

Row | Sequence | switch fluorescence ratio
1 | ACGGTTAGTG | 1.01 ± 0.018
2 | TTGAGGGCGG | 1.005 ± 0.0098
3 | ACGGTGTCAC | 0.9774 ± 0.0012
4 | GGCTCAGGCA | 1.04 ± 0.023
5 | GACATGGCTT | 0.975 ± 0.011
6 | CCCGTGGGGA | 1.2 ± 0.15
7 | AATATTTTGA | 1.02 ± 0.016
8 | ACATTAGGCT | 1.02 ± 0.046
9 | AAAGAAGATG | 0.953 ± 0.045
10 | TTAAGTTACA | 1.05 ± 0.032
11 | ATTCACTCTA | 1.08 ± 0.026
12 | TACGGGACTT | 1.26 ± 0.033
13 | TTTTCGATGT | 0.994 ± 0.042
14 | CCGGTTAGAG | 1.05 ± 0.014
15 | TCGGGGTACG | 1.01 ± 0.015
16 | TACGGTGGGG | 1.01 ± 0.027
17 | AGGGGAAGCT | 1.03 ± 0.081
18 | GTTACGGGGT | 0.975 ± 0.024
19 | GGTGACAGCT | 0.979 ± 0.023
20 | CGTCATCGGG | 0.973 ± 0.029
21 | GCCGAGGGGT | 1.037 ± 0.008
22 | AGGCGGATCG | 0.99 ± 0.085
23 | AACGATTTAT | 0.9936 ± 0.0068
24 | TGGGGAATGG | 1 ± 0.05
25 | GGTCATTGGA | 1.09 ± 0.064

Row | Sequence | switch fluorescence ratio
26 | GCAAGATTCA | 1 ± 0.021
27 | AAGGTTGGG | 0.989 ± 0.014
28 | ATTTATGTGT | 1.01 ± 0.057
29 | CGCCGGGGGG | 1.04 ± 0.046
30 | TCCGACTCTT | 1.53 ± 0.72
31 | AAGAAGAGGG | 1.02 ± 0.021
32 | GGACACTGGT | 1.06 ± 0.041
33 | ATATACGGGG | 1.04 ± 0.02
34 | GGTATCGGAA | 0.984 ± 0.055
35 | ATGAAGACGG | 1.03 ± 0.059
36 | TGGGGATCTG | 0.985 ± 0.03
37 | CGGGGGTCGT | 0.98794 ± 0.00054
38 | GCTACGCAGC | 3.05 ± 1.8
39 | TTAAAGTGCT | 0.984 ± 0.021
40 | TACCAACTTA | 1.1 ± 0.033
41 | TTTAGAGTTT | 0.997 ± 0.032
42 | GTGTTTATGA | 1.06 ± 0.053
43 | TAGAATAGTC | 0.974 ± 0.01
44 | AGGGGGGATT | 1 ± 0.019
45 | AACTCTGTCT | 1 ± 0.032
46 | ATGTACAGGA | 1.05 ± 0.056
47 | CTGGGGAGCT | 1.03 ± 0.05
48 | GAAGTTCATG | 1.03 ± 0.024
49 | CGCTAGGGAA | 1.03 ± 0.045
50 | AGGCTAGGGC | 0.993 ± 0.022

Row | Sequence | switch fluorescence ratio
51 | TATCACCATA | 1.04 ± 0.079
52 | CAGTCCCCTT | 1.33 ± 0.44
53 | TCAAAGTCGA | 0.976 ± 0.045
54 | ATTACCTATA | 1.05 ± 0.044
55 | GGGTTGGTGT | 0.978 ± 0.015
56 | GCTATCAGCG | 0.995 ± 0.023
57 | TGATTTAATT | 0.97 ± 0.036
58 | TTTGTAAAAG | 0.977 ± 0.033
59 | GGAACTTGGT | 0.928 ± 0.087
60 | AAAGGCCGTG | 1.0223 ± 0.00097
61 | TGATTGATTG | 1.03 ± 0.066
62 | CCGAAAATGA | 1.35 ± 0.49
63 | TTTACTCGCG | 1 ± 0.038
64 | TCCATACCAC | 1.03 ± 0.032
65 | ATCTAAGGTT | 1.01 ± 0.025
66 | AACTTGGGGG | 1.021 ± 0.0048
67 | TTAGTGACGT | 1.037 ± 0.0016
68 | TTGTATGGGA | 1.001 ± 0.0069
69 | TGCTTTCCTT | 1.035 ± 0.0034
70 | CGGAAGTTGA | 1.02 ± 0.067
71 | ATTGGGGCCG | 1.01 ± 0.016
72 | TTGAAGGTTA | 0.99 ± 0.016
73 | ATTTGTCCGG | 1.007 ± 0.0081
74 | CCAGGGGTCT | 1.22 ± 0.028
75 | AACCGCTTGG | 0.995 ± 0.056

Row | Sequence | switch fluorescence ratio
76 | TAATAACTCT | 1 ± 0.061
77 | AGTGTTTAAT | 0.999 ± 0.032
78 | CGTGGAGAGC | 1.06 ± 0.043
79 | GGGGATATGG | 1.01 ± 0.039
80 | CGTTACAAGC | 1.1 ± 0.086
81 | CAATGGGCTC | 1.016 ± 0.0084
82 | CGTCGGAAAG | 1.01 ± 0.024
83 | TCGTAAGGGT | 1.18 ± 0.26
84 | TTAGATAGTA | 1.01 ± 0.043
85 | TTGGCATGCG | 1.01 ± 0.021
86 | GGCGGAGAGA | 1.03 ± 0.07
87 | AAAAATGGGC | 1.035 ± 0.005
88 | TAGAGCTAC | 1.17 ± 0.049
89 | ACCTGGTCTC | 1.07 ± 0.027
90 | CTATGTCGGT | 0.974 ± 0.015
91 | AGATATTTTG | 0.988 ± 0.039
92 | TGATTAAAGG | 1.02 ± 0.025
93 | TTCTTTCTGT | 0.998 ± 0.0026
94 | TTTGTGGTAT | 1.03 ± 0.047
95 | TTCCTCCCCC | 1.94 ± 0.68
96 | ATTACCAATT | 2.24 ± 1.8
97 | GTGTTAACGG | 0.982 ± 0.017
98 | AAAATGGACA | 1.03 ± 0.019
99 | GGAGCTGGGG | 1.04 ± 0.065
100 | CAGCGGGGCA | 1.017 ± 0.0072

Row | Sequence | switch fluorescence ratio
101 | AGCCTACTTT | 1 ± 0.038
102 | GTGTTTTCAG | 0.988 ± 0.03
103 | GGGATACGGT | 1.0248 ± 0.00074
104 | ATTTCGGTGC | 1.1 ± 0.17
105 | CGTTGCGCTA | 1.1 ± 0.012
106 | TTTCGAGGGT | 1.006 ± 0.0034
107 | ACCTGTGGGG | 1 ± 0.027
108 | TTGAATCGCG | 1.0115 ± 0.00023
109 | TATTGGTTTT | 1 ± 0.011
110 | AAATTTTTGG | 1.01 ± 0.045
111 | GGTTGGGTGG | 0.986 ± 0.03
112 | GTCGCGGGGG | 1.04 ± 0.071
113 | GAAGTAAAGT | 1.06 ± 0.15
114 | TCAAGGGGAG | 1.06 ± 0.067
115 | CTTGTGGGGT | 0.978 ± 0.021
116 | TGCATTACGT | 1.35 ± 0.015
117 | GACGAAGTTG | 1.01 ± 0.029
118 | AGTCTTTTGT | 0.997 ± 0.026
119 | AGGTGAAGCC | 1.01 ± 0.038
120 | TACCATGCGG | 1.023 ± 0.01
121 | CGTCTGGCGA | 1.02 ± 0.014
122 | TAGGGTTGTA | 0.991 ± 0.04
123 | TGATCGGCTA | 1.01 ± 0.049
124 | GCTCGTACGA | 1.03 ± 0.027
125 | TTATGTGGTA | 1 ± 0.02

Row | Sequence | switch fluorescence ratio
126 | GCTTGCTATG | 0.976 ± 0.014
127 | AAAGAGGAAG | 0.987 ± 0.02
128 | TGTTGCCGAT | 0.986 ± 0.019
129 | CTAATGGGTG | 1.02 ± 0.02
130 | GGGTCGAGGG | 0.986 ± 0.027
131 | TAAACACTAA | 1.01 ± 0.038
132 | GGGTTAGACG | 1.01 ± 0.011
133 | CTTCGTACGA | 1.03 ± 0.043
134 | GAGTTAATTT | 0.989 ± 0.017
135 | ATTGATTAGA | 0.99 ± 0.043
136 | CTTAGGTTGT | 1.004 ± 0.0077
137 | GAAGGAAAGT | 0.9689 ± 0.0057
138 | TATTAGGGCA | 0.9717 ± 0.0097
139 | GCAAGGCGAG | 1.3 ± 0.031
140 | CCGGTATATC | 2.517 ± 0.025
141 | CGAAATATCT | 1.04 ± 0.058
142 | GAAATCGGA | 0.993 ± 0.016
143 | TTTTGGTGGT | 1.01 ± 0.024
144 | GATCATCGAT | 1.02 ± 0.013
145 | GTTTTAGGGA | 0.979 ± 0.037
146 | CTGGTCGGGC | 0.982 ± 0.012
147 | TAAAAGTTAA | 0.981 ± 0.018
148 | AATGTTTGAC | 0.977 ± 0.038
149 | ACCTACTGAG | 1.351 ± 0.0076
150 | CTGGGGTTTC | 0.997 ± 0.026

Row | Sequence | switch fluorescence ratio
151 | CCGAGGTATC | 3.23 ± 2.1
152 | CATAACTTGG | 1.011 ± 0.002
153 | ACTGTGGGGT | 0.996 ± 0.022
154 | GGGGCGTTGG | 0.993 ± 0.033
155 | GAGGATAAGT | 0.988 ± 0.078
156 | GGGTAATAAG | 0.993 ± 0.035
157 | GAACCCCCTC | 1.21 ± 0.18
158 | GGGGGGCGAG | 0.9864 ± 0.0052
159 | ATAGAATGGG | 0.9928 ± 0.0072
160 | CTAGCCGGGG | 1.01 ± 0.031
161 | CATGCTACGG | 1.01 ± 0.016
162 | TGGGAGTCGC | 0.97 ± 0.027
163 | AAGAGGTGCA | 0.989 ± 0.034
164 | TTTTTCGGGC | 1.08 ± 0.24
165 | TTCCCGATGT | 1.02 ± 0.0059
166 | ATTATGCCG | 0.993 ± 0.06
167 | GGCTAAACG | 1.05 ± 0.011
168 | ATGGCTATTT | 0.9852 ± 0.0086
169 | GACGGGGTGC | 1.3 ± 0.24
170 | ATTGGGGGT | 1.026 ± 0.0062
171 | TATTGAGACT | 0.989 ± 0.004
172 | TGGTTTGTTG | 0.9686 ± 0.0064
173 | AGATTTTTAA | 1.004 ± 0.0097
174 | TAGGGTGTGC | 1 ± 0.037
175 | CCAATGGAGG | 0.994 ± 0.034

Row | Sequence | switch fluorescence ratio
176 | ATCAGGGTGT | 1.16 ± 0.031
177 | AGAATGGCTT | 1 ± 0.041
178 | TTTTAGGGAT | 1.03 ± 0.021
179 | TTTGTGGTCG | 1.02 ± 0.031
180 | TATGAAAGGA | 1.011 ± 0.0047
181 | TTTGTGGGAG | 0.998 ± 0.02
182 | GATAAAATGC | 1.02 ± 0.044
183 | GCGTTGGG | 1.02 ± 0.029
184 | GGTTAGGCAT | 1 ± 0.0058
185 | TGCTACAGTT | 0.985 ± 0.024
186 | GAATATTGAG | 0.99 ± 0.019
187 | ATGTGGATTG | 1.016 ± 0.009
188 | TTGAGGGTCG | 0.995 ± 0.035
189 | AATTAGTTGG | 0.9923 ± 0.0071
190 | ATTTATTTAG | 0.987 ± 0.022
191 | ATGAAGGATG | 1.01 ± 0.02
192 | AATAAAGGGA | 0.9841 ± 0.0045
193 | TTCTTGGTG | 1.02 ± 0.072
194 | TCTTTTCCCT | 1.02 ± 0.086
195 | GGGTACGAG | 1.018 ± 0.01
196 | TGCTTGAA | 0.962 ± 0.021
197 | CCAGGCTAAT | 1.03 ± 0.014
198 | TAGGACGAGG | 1.02 ± 0.021
199 | TTACCCGGAA | 1.9 ± 0.048
200 | TAAATTCCGA | 1.07 ± 0.038

Source: the supplement of paper PMC10126150
